Results reported in the RNAGym collection of RNA variant scans (doi:10.1073/pnas.2313332121).
Variants at the floor of the assay were thinned out.

B1: TPR 5TU (parent)
chain: GGAUCUUCUCGAUCUAACAAAAAAGACAAAUCUGCCACAAAGCUUGAGAGCAUCUUCGGAUGCAGAGGCGGCAGCCUUCGGUGGCGCGAUAGCGCCAACGUUCUCAACUAUGACACGCAAAACGCGUGCUCCGUUGAAUGGAGUUUAUCAUG

Variants of: B1
Assay: polymerase ribozyme fitness, log enrichment relative to wild type (log ratio); higher = more active; in vitro selection for triplet polymerase activity
In short: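 PCR was used to build mutant libraries for each subunit of a heterodimeric triplet polymerase ribozyme, which were then transcribed. A single in vitro selection round, in triplicate, used a frozen incubation at −7 °C and recovered extended constructs by gel excision, streptavidin beads and RT-PCR. Fitness is the logarithm of genotype enrichment relative to wild-type enrichment, averaged over replicates with inverse-variance weights. The logarithm is base 2, and after Illumina sequencing only genotypes with ≥10 input reads and ≥1 read per output were kept.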

| Variant | polymerase ribozyme fitness (log ratio) |
| --- | --- |
| GGAUCUUCUCGUUCUAACAAAAAUGACAAAUCUGCCACAAAGAUUAAGAGCAACAUUGGGUGCAGAGGCGGCAGCCUUCUGUGGCGCGAUAGGGCCAACGUUCUCAACUAUGACACGCAAAACGCGUGCUCCGUUGAAUGGAGUUUAUCAUG [A12U A24U C43A G46A U53A U55A C57U A60G G80U C93G] | ≤ -4.2 |
| GGAUCUUCUCGUUCUAACAAAAAAGACAAAUCUGCCACAAAGUUUGAGAGCAUCUUCGGAUGUAGAGGCGGCAGCCUUCGGUGGCGCGACAGCGCCAACGUUCUGAACUAUGACACGCAAAACGCGUGCUCCGUUGAAUAGAGUUUAUCAUG [A12U C43U C63U U90C C105G G140A] | ≤ -4.2 |
| GGAUCUUCUCGUUGUAACAAAAAAGACACAUUUGCCACAAAGCUAGAGAGCAUCUUCGGAUGCAGAGGCGGCAGCCUUCCGUGGCGCGAUAGCGCCAACGUUCUCAACUAUGACACGCAAAACGCGUGCUCCGUUGAAUGGAGUUUAUCAUG [A12U C14G A29C C32U U45A G80C] | ≤ -4.2 |
| GGAUCUUCUCGUUCUAACAAAAAAGACAAAUCUGCGACAAAGCUUGAGAGCAUCUUCGGAUGCAGAGGCGGCAGCCUUCGGUGGCGCGAUACCGCCAACGUUCUCAACUAUGACACGCAAAACGCGUGCUCCGUUGAAUGGAGUUUGUCAUG [A12U C36G G92C A147G] | ≤ -4.2 |
| GGAUCUUCUCGUUCUAACAAAAAAGACAAAUCUGCCACUAAGCUUGAGAGCAGCUUCGGAUGCAGAGGCGGCAGCCUUCGGUGGCGCGAUAGCGCCAACGUUCUCAACUAUGACACGCAAAACGCUUGCUCCGUUGAAUGGAGUUUAUCAUG [A12U A39U U53G G126U] | -4.09 |
| GGAUCUUCUCGUUUUAACAAAAAAGACAAAUCUGCCACAAAGCUUGAGAGCAUCUUCGGAUGCAGAGGCGGCAGCCUUCGGUGGCGCGAUAGCGCCAACGUUCUCAACUAUGACACGCAAUACGUGUGCUCCGUUGAAUGGAGUUUAUCAUG [A12U C14U A121U C125U] | -0.306 |
| GGAUCUUCUCGUUCUAACAAAAAAGACAAAUCUGCCACAAAGCUUGAGAGGAUCUUCGGAUGCAGAGGCGGCAGCCUUCGGUGGCGCCAUAGCGCCAACGUUCUCAAGUAUGACACCCAAAACGCGUGCUCCGUUGAAUGGAGUUUAUCAUG [A12U C51G G88C C108G G117C] | ≤ -4.2 |
| GGAUCUUCUCGUUCUAACAAAAAAGACAAAUCUGCCACUAAGCUUGAGAGCAUCUUCGGAUGCAGAGGCGGCUGCCUUCAGUGGCGCGAUAGAGCCAACGUUCUCAACUAUGACACGCAAAACGCGUGCUCCGUUGAAUGUAGUUUAUCAUG [A12U A39U A73U G80A C93A G141U] | ≤ -4.2 |
| GGAUCUUCUCGUUUUAUCAAAAAAGACAAAUCUGCCACAAAGCUUGAGAGCAUCUUCGAAUGCAGAGGCGGCAGCCUUCGGUGGCGCGAUAGUGCCAACGUUCUCAACUAUGACACGCAAAUCGCGUGCUCCGUUGAAUGGACUUUAUCAUG [A12U C14U A17U G59A C93U A122U G143C] | ≤ -4.2 |
| GGAUCUUCUCGUUCUAAGAAAAAAGACAAAUAUGCCACAAAGCUUGAGAGCAUCUUCGGAUGCAGAGGCGGCAGCCUUCGGUGACGCGAUAGCGCCAACGUUCUUAACUAUGACACGCAAAACGCGGGCUCCGUUGAAUGGAGUUUAUCAUG [A12U C18G C32A G84A C105U U127G] | ≤ -4.2 |
| GGAUCUUCUCGUUCUAACAAAAAAGACAAAUGUGCCACAAAGCUUGAGAGCAUCUUCGGAUGCAGAGGCGGCAGCCUUCGGUGGCGCGAUAGCGCCAACAUUCUCAACUAUGACACGCAAAACGCGUGAUCCGUUGAAUGGAGGUUAUCAUG [A12U C32G G100A C129A U144G] | ≤ -4.2 |
| GGAUCUUCUCGUUCUAACAAAAAAGACAAAUCUGCCACAAAGCUUGGGAGCAUCUUCGGAUGCAGAGGCGGCAGCAUUCGGUGGGGCGAUAGCGCCAACGUUCUCAACUAUGACACGCAAAACGCGUGCUCCGUUGAAUGGAGUUUAUCAUG [A12U A47G C76A C85G] | -3.78 |
| GGAUCUUCUCGUUCUAACAAAAAAGAUAAAUCUGCCAUAAAGCUUGAGAGCAUCUUCGUAUGAAGAGGCGGCAGCCUUCGGUGGCGCGAUAGAGCCAACGUUCUCAACUAUGACACGCAAAACGCGUGCUCCGUUGAAUGGAGUUUAUCAUG [A12U C27U C38U G59U C63A C93A] | -4.12 |
| GGAUCUUCUCGUUCUAACAAAAAAGACAAAUCUGCCACAAAGCUUGAGUGCAUGUUCGGAUGCAGAGGCGGCAGCCUUCGGUGGCGCGAUAGGGCCAACGUUCUCAACUAUGACACGCAAAACGCGUGCUCCGUUGAAUGGAGUUUAUCAUG [A12U A49U C54G C93G] | ≤ -4.2 |
| GGAUCUUCUCGUUCUAACAAAAAAGACAAAUCUGCCACAAAGCUUGAGAGCAUCUUCGGAUGCAGAGGCGGCAGCCUUCGGUGGUGCGAUAGCGCCAACGUUCUCAACUAUGACACGCAAAACGCGUGCUCCGUUUAAUGGAGUUUAUCAUG [A12U C85U G136U] | -3.16 |
| GGAUCUUCUCGUUGUAACAAAAAAGACAAAUCUGCCACAAAGCUUGAGAGCAUCUUCGGAUGCAGAGGCGGCAGCCUUCGGUGGCGCGAUAGCGCCAACGUUCUCAACUAUGACACGCAAAACGCGUGCUCCGUUGAAUGGAGUUUAUCAUG [A12U C14G] | -2.05 |
| GGAUCUUCUCGUUCUAACAAAAAAGACAAAUCUGCCACGAAGCUUGAGAGCAUCUUCGGAUGCAGAGGCGGCAGCCUUCGGUGGCGCGAUAGCGUCAACGUUCUCAACUAUGACACGCAAAACGCGUGCUCCGUUGAAUGGAGUUUAUCAUG [A12U A39G C95U] | -2.3 |
| GGAUCUUCUCGUUCUAACAAAAAAGACAAAUCUGCCACAAAGCUUGGGAGCAUCUUCGGAUGCAGAGGCGGCAGCCUUCGGUGGCGCGAUAGCGCCAACGUUCUCAACUAUGACACGGAAAACGCGUGCUCCGUUGAAUGGAGUUUAUCAUG [A12U A47G C118G] | -1.11 |
| GGAUCUUCUCGUUCUAACAAAAAAGACAAAUCUGCCACAAAGCUUGAGAGCAUCUUCGGAUGCAGAGGCGGCAGCCUUUGGUGGCGCGAUAGGGCCAACGUUCUCAACUAUGACACGCAAAACGCGUGCUCGGUUGAAUGGAGUUUAUCAUG [A12U C79U C93G C132G] | ≤ -4.2 |
